In patent publication WO2008021263A2 (dated 2008):

Experiments:
dimeric form of SDF-1α [1] = target: T1, dimeric form of SDF-1α (Felis catus (Cat) (Felis silvestris …, UniProt O62657 22-89)); assay: SPR, both formats (SDF-1α on chip; Fab on anti-CH1 chip)
T1 construct: Same protein as m1; also called SDF-lα dimers; dimeric state of the SDF-1α antigen

[2] = target: T2, SDF-1α (stromal cell-derived factor-1 alpha) (Felis catus (Cat) (Felis silvestris …, UniProt O62657 22-89)); assay: SPR, Fab captured on anti-CH1 chip, SDF-1α flowed (Table IV, not shown)
T2 construct: also called SDF-lα; SDF-I α

[3] = target: SDF-FITC (FITC-labelled SDF-1α) (Felis catus (Cat) (Felis silvestris …, UniProt O62657 22-89, FITC label, site not stated)); assay: fluorescence polarization time course with FITC-labelled SDF-1α (Figures 8A-8C)
[4] = target: T2, SDF-1α (stromal cell-derived factor-1 …); assay: SPR, SDF-1α with heparin in solution (Figure 7 legend: 1D3 IgG)
dimeric form of SDF-1α [5] = target: T1, dimeric form of SDF-1α; assay: SPR, IgG immobilised on chip, SDF-1α flowed (Table VI, not shown)
[6] = target: T2, SDF-1α (stromal cell-derived factor-1 …); assay: SPR, time course after dilution of SDF-1α in buffers HBS-EP, HBS-P and HBS-N

T1 sequence (O62657 22-89 limits assumed): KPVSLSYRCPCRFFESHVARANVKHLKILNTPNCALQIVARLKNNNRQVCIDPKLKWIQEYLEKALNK
T2 sequence (O62657 22-89 limits assumed): as above
Chain of SDF-FITC (FITC-labelled SDF-1α) (Felis catus (Cat) (O62657 22-89 limits assumed): as above

Row | Binder | binding result (dimeric form of SDF-1α [1]) | binding result [2] | binding result [3] | binding result [4] | binding result (dimeric form of SDF-1α [5]) | binding result [6]
1 | 1D3 Fab (Fab, V domains shown, Fab of the 1D3 human monoclonal antibody; the constant parts are not; also called B-type Fab) VH: EVQLVQSGAEVKKPGASVKVSCKVSGYTLTKLSVHWVRQAPGKGLEWMGSFDPEDGETIYSQRFQGRVTMTEDTSTDTAYMELTSLRSEDTAVYYCATEGQWLVAYYGMDVWGQGTTVTVSS VL: EIVLTQSPSSLSASVGDRVTITCRASQGISSALAWYQQKPGKAPKLLIYDASSLESGVPSRFSGSGSGTDFTLTISSLQPEDFATYYCQQFNSYPLTFGGGTKVEIK | binds |  |  |  |  | 
2 | 1H2 Fab (Fab, V domains shown, Fab of the 1H2 human monoclonal antibody; the constant parts are not; also called B-type Fab) VH: QVQLVQSGAEVKKPGASVKVSCKVSGYTFTKLSVHWVRQAPGKGLEWMGSFDPEDGETIYSQRFQGRVTMTEDTSTDTAYMELSSLRSEDTAVYYCATEGQWLVAYYGMDVWGQGTMVTVSS VL: EIVLTQSPSSLSASVGDRVTITCRASQGISSALAWYQQKPGKAPKLLIYDASSLESGVPSRFSGSGSGTDFTLTISSLQPEDFATYYCQQFNSYPLTFGGGTKVEIK | binds | binds |  |  |  | 
3 | 1D3 IgG (antibody, V domains shown, Human monoclonal IgG; also called B-type IgG; B-type antibody) VH: EVQLVQSGAEVKKPGASVKVSCKVSGYTLTKLSVHWVRQAPGKGLEWMGSFDPEDGETIYSQRFQGRVTMTEDTSTDTAYMELTSLRSEDTAVYYCATEGQWLVAYYGMDVWGQGTTVTVSS VL: EIVLTQSPSSLSASVGDRVTITCRASQGISSALAWYQQKPGKAPKLLIYDASSLESGVPSRFSGSGSGTDFTLTISSLQPEDFATYYCQQFNSYPLTFGGGTKVEIK |  |  | binds | binds | binds | 
4 | 1H2 IgG (antibody, V domains shown, Human monoclonal IgG; also called B-type IgG; B-type antibody) VH: QVQLVQSGAEVKKPGASVKVSCKVSGYTFTKLSVHWVRQAPGKGLEWMGSFDPEDGETIYSQRFQGRVTMTEDTSTDTAYMELSSLRSEDTAVYYCATEGQWLVAYYGMDVWGQGTMVTVSS VL: EIVLTQSPSSLSASVGDRVTITCRASQGISSALAWYQQKPGKAPKLLIYDASSLESGVPSRFSGSGSGTDFTLTISSLQPEDFATYYCQQFNSYPLTFGGGTKVEIK |  |  | binds |  | binds | binds
